Data published in article PMC10962793, “Structural and functional characterization of sulfurtransferase from Frondihabitans sp. PAMC28461” (PLOS ONE, 2024).

What was measured:
FrST = target: T1, FrST (Frondihabitans sp., UniProt Z9JZO3RSK1); experiment: colorimetric ferric thiocyanate assay at […] nm, Michaelis-Menten fit; format: biochemical; conditions: read-out: Kinetic parameters^* / Km
T1 construct: synthetic gene in pET28a, E. coli BL21(DE3); His-tag cleaved with thrombin; model 302 residues; catalytic Cys247

O=C(O)C(=O)CS = experiment: purified protein; format: biochemical, Frondihabitans sp.; conditions: pH 8.0; 25.0 °C
O=C(O)CCS = experiment: purified protein; format: biochemical, Frondihabitans sp.; conditions: pH 8.0; 25.0 °C
CC(CS)C(=O)O = experiment: purified protein; format: biochemical, Frondihabitans sp.; conditions: pH 8.0; 25.0 °C
O=S(=O)(S)c1ccccc1 = experiment: purified protein; format: biochemical, Frondihabitans sp.; conditions: pH 8.0; 25.0 °C
CS(=O)(=O)S = experiment: purified protein; format: biochemical, Frondihabitans sp.; conditions: pH 8.0; 25.0 °C
[1] = target: sulfurtransferase FrST from Frondihabitans sp. PAMC28461 (Frondihabitans sp. PAMC28461); experiment: AUC; sedimentation velocity, 20 mM Tris-HCl pH 8.0, 200 mM NaCl, 20°C, 42,000 RPM, 280 nm, SEDFIT

Compound O=S(O)(O)=S [Sodium thiosulfate] has a Km (FrST) of 6.3 ± 0.2 mM.
FrST (Frondihabitans sp.) showed a Km (O=C(O)C(=O)CS) of 13.9 ± 2.6 mM, a Vmax (O=C(O)C(=O)CS) of 150 µmol/min/mg and a kcat/Km (O=C(O)C(=O)CS) of 610 M⁻¹ s⁻¹. The Km (O=C(O)CCS) was 10.7 ± 1.3 mM, the Vmax (O=C(O)CCS) was 43.7 µmol/min/mg and the kcat/Km (O=C(O)CCS) was 250 M⁻¹ s⁻¹. The Km (CC(CS)C(=O)O) was 4.1 ± 0.4 mM, the Vmax (CC(CS)C(=O)O) was 17.8 µmol/min/mg and the kcat/Km (CC(CS)C(=O)O) was 240 M⁻¹ s⁻¹. The Km (O=S(=O)(S)c1ccccc1) was 6.1 ± 0.9 mM, the Vmax (O=S(=O)(S)c1ccccc1) was 7810 µmol/min/mg and the kcat/Km (O=S(=O)(S)c1ccccc1) was 73000 M⁻¹ s⁻¹. It also gave a Km (CS(=O)(=O)S) of 6.0 ± 0.3 mM, a Vmax (CS(=O)(=O)S) of 1490 µmol/min/mg and a kcat/Km (CS(=O)(=O)S) of 14200 M⁻¹ s⁻¹.
“sulfurtransferase FrST from Frondihabitans sp. PAMC28461 (enzyme)” gave a stoichiometry N [1] of 2.
